Experimental data from patent EP2344531B1.

Columns and labels:
[1] = molecular target: VEGF (vascular endothelial growth factor) (UniProt P15692); experiment: BioVeris ECL competition assay with a labeled competitor; legend: +++ = IC50 about 2 - 10 µM
[2] = molecular target: TGFβ1 (transforming growth factor β1) (UniProt P01137); experiment: BioVeris ECL competition assay with a labeled competitor; legend: ++ = IC50 about 10 - 50 µM
[3] = molecular target: FGF-5 (fibroblast growth factor 5) (UniProt P12034); experiment: BioVeris ECL competition assay with a labeled competitor; negative control
Sequence of FGF-5 (fibroblast growth factor 5) (P12034 18-268 limits assumed): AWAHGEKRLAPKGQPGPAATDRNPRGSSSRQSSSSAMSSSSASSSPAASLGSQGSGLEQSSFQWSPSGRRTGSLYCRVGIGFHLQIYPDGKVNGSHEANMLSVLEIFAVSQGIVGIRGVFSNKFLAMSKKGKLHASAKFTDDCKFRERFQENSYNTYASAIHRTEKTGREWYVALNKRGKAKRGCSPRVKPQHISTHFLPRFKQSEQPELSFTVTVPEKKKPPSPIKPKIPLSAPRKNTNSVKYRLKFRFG

[4] = molecular target: VEGF (vascular endothelial growth factor) (UniProt P15692); experiment: as above

Sequence of VEGF (vascular endothelial growth factor) (P15692 other isoform, or with tags, fused parts or gaps limits assumed): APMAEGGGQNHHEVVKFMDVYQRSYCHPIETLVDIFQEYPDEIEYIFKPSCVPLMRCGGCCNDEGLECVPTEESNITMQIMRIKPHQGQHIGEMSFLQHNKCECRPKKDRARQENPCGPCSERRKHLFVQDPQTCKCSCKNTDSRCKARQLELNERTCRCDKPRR
Sequence of TGFβ1 (transforming growth factor β1) (P01137 279-390 limits assumed): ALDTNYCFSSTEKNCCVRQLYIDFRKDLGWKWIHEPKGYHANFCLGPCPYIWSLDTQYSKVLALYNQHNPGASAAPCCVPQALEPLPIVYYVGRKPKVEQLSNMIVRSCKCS

IC50 [1]	IC50 [2]	Substance	further results
2 to 10 µM		BBIt with the VEGF-binding peptide VegKD (KYDLYWW) in the chymotrypsin loop (designed binder)	
	10 to 50 µM	PEN3-Q-BBIt-TGF-A40L-F50N (BBIt-A40L-F50N with the TGFβ1 binding peptide PEN3 PENINVLP) (designed binder)	
2 to 10 µM		BBIt-VEGK (BBIt with the VEGF-binding peptide VegK KYYLYWW in the chymotrypsin loop) (designed binder)	
	10 to 50 µM	WTQ-BBIt-Q-TGF (BBIt-A13I-L29P-F50T-V52A with the TGFβ1 binding peptide WTQ WTQHIHN) (designed binder)	
2 to 10 µM		BBIt-VEGT (BBIt with the VEGF-binding peptide VegT TLWKSYW in the chymotrypsin loop) (designed binder)	
		sBBI (wild-type soybean Bowman-Birk Inhibitor) (from UniProt P01055 40-110)	IC50 [3]: > 250 µM; IC50 [4]: > 250 µM
